Reference: the nanobody polyreactivity screen of Harvey et al. (2022)

Assay: yeast display, Sf9 membrane polyspecificity reagent, FACS + sequencing; frameworks hold sequencing errors
Summary of the method: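 Genes from sorted yeast were amplified by colony PCR, read by MiSeq 2 × 250 sequencing and filtered on CDR length. These cells carried a synthetic nanobody library in Saccharomyces cerevisiae BJ5465 and were sorted by FACS into low and high (top ~1%) gates on anti-HA and streptavidin fluorescence. Polyreactivity is labelled according to the gate of origin.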

Sequence | polyreactivity (PSR sort gate)
QVQHVESGGGLFQAGGSLRLSCAASGTTFRYYAMGWYRQAPVKERELVAYITTSGGTYYADSVKGRFTISRDNAKNTVYLQMNSLKPEDTAVDYCAARRQDYTYYRIYNFDYWGQGTQVTVSS | high polyreactivity
QVQLVESGGGLVQAGGSLRLSCAASGIIFYYYAMGWYRQAPGKERELVACISYSGGSTYADSVKGRFTISRDNAKNTVYLQMNSLKPEDTAVYYCAADYDYGGHWYDYWGQGTQVTVSS | low polyreactivity
QVQLEESGGRLVQAGGSLRLSCAASGSTFSNNAMGWYRQAPGKERELVAAIRTSGGRTYYADSVKGRFTISRDNAKHTVYLQMNSLKPEDTAVYYCAKRWVYRYGYEYWGQGTQVTVSS | high polyreactivity
QVQLVESGEGIVQAGGSLRLSCAASGSIFGIYVMGWYRQAPGKERELVAAITFGGGSTYYADSVKGRFTISRYNAKNSVYLKMNRLKPEDTSVYYCAAKSYDEGLYRRPRDYWGQGTQVTESS | high polyreactivity
QVQLVESGGGLVQAGGSLRLSCAASGSIFADYVMGWYRQAPGKDRELVAAITRRGRTYYADSVKGRFTISRDNAKNTVYLQMNSLKPEDTAVYYCAKVGSGNIDSWGQGTQVTVSS | low polyreactivity
QVQLVESGVGLVQAGGSLRLSCAASGSIFDPYAMGWYRQPPGKERELVAAIPYSVGGTTYYADSVKGRFTISRDTAKNTVYLQMNSLKPEHTAVNYCAAEWWGNPFDYWGQGTQVTVST | high polyreactivity
QVQLVESGGGLVQAGGSLRLSCAASGITLSIYAMGWYRQAPGKERELVAAINGNGGSTYYADSVKGRFTISRDNAKNTVYLQMNSLKPEDTAVYYCAVTDYVYEHDDYWGQGTEVTVSS | low polyreactivity
QVKLVESGGGLDKAGGSLRLSCAASGLIFYLYPKGWYRQAPGQERELVAAISRSGDTTYYADSVKGRFTISRDNAKNTVYLQMNSLKPEDTAVYYCAADDYYKFDYWGQGTQVTVSS | low polyreactivity
QVKLVESGGGLVQSGGSLRLRCAASGSTITGYAMGWYRQAPRKERDLVAAITYTGTSTYYADTVKGRYTISRDNAKNTVYLEMNSLNPEDTAVYYCAARLAWWKTYIRYYYWGKGTQVTVSS | high polyreactivity
QVQLVESGGGLVQAGGSLRLSCAASGSIFNSYAMGWYRQAPGKETELVAAITRSDGSTYYADSVKGRFTISRDKAKNTVYLQMNSLKPEDTAVYYCAKGVGGYIYSEYDYWGQGTQVTVSS | low polyreactivity
QVQLVESGGGLDQAGGSLRLSCAAYGSTFTYQSMGWYRQATGKERELVAAITWSSDITYYADSVKGRFTISRDNAKSTVYLQMNSLKPEDTAVYYCAADGVTRDYVYWGQGTQVTVSS | low polyreactivity
QVQLVESGGGLVQAGGSLRLSCAASGFTFGNYAMGWYRQAPGKERELVAAISSRGGSTYYADSVKGRFTISRDNAKNSVYLQMNSLKPEDTAVYYCNALRLEVDMGYWGQGTQITVSS | high polyreactivity
QVQLVESGGGLVQAGGSLRLSCAASGFTFRRYAMGWYRPAPGKERELVAAITPNGGSTYYADSVKGRFTISRDNAMNNFYLQMNRLKPEDTAVYYCNAVLYTPVYDGFDSWGQGTQVTVSS | high polyreactivity
QVQLVESGGGLVQAGGSHRLSCAASGSTFGQNAMGCYRQAPGKERELVAAITRRGVSTYYADSVKGRFTISRDNAKNTVYLQMNSLKPEDTAVYYCAKRYHPNSPYDYWGQGTQVTVSS | low polyreactivity
QLQLVESAVGLDQAVDILRLSSAASGFIFPGNMGWYRKAPGKETELVAAISWSGGSTRYADSVKGRFTISRDNAKNTVYLQMNSLKPEDTAVYYCAASLSGKRFNKRYYWGQGTQVTVSS | high polyreactivity
QVQLQESGGGPVLAGGSLRLSCAASGTIFVRLDMGWYRQAPGKEREFVATIGSGSSTYYADSVKGSFTISRDNVKNTVYLQMNSLKPEDTAVYYCAVSAAEQSRHYYWDQGTQVTVSS | low polyreactivity
QVQLVDSGGGLVQAGGSLSLSCAASGSILRYYAMVWYRQAPGKERELVAAISRSGGSTYYADSVKGRVTISGDNAKNKVYLLMNRLKPEDTAVYYCANSDFGHHVTGFGYWGQGTQVTVSS | low polyreactivity
QVQLVESGGGLFQAGGSLRVSCAASGFTFVYYAMGWYRQAPGKERELVAAITASGGSTYYADSVQGRFTISRDNAKNTVYLQMNSLKPEDSADYYCNTVRYVRHYRQSGYWGQGTQVTVSS | high polyreactivity
QVQLVESGGGLVQAGGSLRLSCAASGFIFIANAMGWYRQAPGKERELVAAISDGGSTYYADSVKGRFTISRDNAKNTVYLQMNSLKPEDTGVYYCAKDVTWAGHYDYWGQGTQVTVSS | low polyreactivity
QVQLVESGGGLVQAGGSLRLSCAASVRTFKFYAMGWYRQAPGKERELVAAITSSGGSTYYADSVKGRFTISRVNAKNTVYLQMNSLKPEDTAVYYCAAVGYKGYGYDYWGQGTQVTVSS | high polyreactivity
QVQLVESGGGLVQAGGSLRLSCAASGSTFGTNVMGWYRQAPGKERELVAAISNGGSTNYADSVKGRFTISRDNAKNTVYLQMNSLKPEDTAVYYCEYDYWGQGTQVTVSS | low polyreactivity
QVQLVESGGGLVQAGGSLRLSCAASGSTFFLYMGWYRQAHGKERELVAAITVSGGSTYYADSVKGRFTISRDNAKNTVYLQMNSLKPEDTAVYYCNADWVMRYDYWGQGTQVTVSS | low polyreactivity

Sequence | polyreactivity (PSR sort gate)
QVQLVESGGGLVQAGGSLRLSCAASGYTFFRYAMGWYRQAPGKERELVAAITGSGGRTYYADSVKGRFTISRDNAKNTVYLQMNSLKPEDTAVYYCNRYGSGHSFIYDYWGQGTQVTVSS | high polyreactivity
QVQLVESGGGLVQAGGSLRLSCAASGYTFRQYAMGWYRQAPGKERELVAAIRYSGASTYYADSVKGRFTISRDNAKNTVYLQINSLKPEDTAVYYWNAALRLWGEYIYDYWGQGTQVTVSS | low polyreactivity
QVQLVESGGGLVQAGGSLRLSFAASGSIFGPYVMGWYRQAPGKERELVAAISKSGGSTYYADSVKGRFTISRDNAKNTVYLQMNSLKPEDTAVYYCATDYLGGGKRYYYWGQGTQVTVSS | high polyreactivity
QVQLVESVGGLVQAGGSLRLSCAASGSIFSAYAMGWYRQAPGKERELVASISWSGSSTYADSVKGRFTISRDNAKNTVYLQMNSLKPEDTAVYYCAAGYYSFRSAYDYWGQGTQVTVSS | high polyreactivity
QVQLVESGGGLVQAGGSLRLICAASGSTFVPNAMGWYRQAPGKERELVAAITLSGVSTYYADSVKGRFTISRDNAKNTVYLQMNSLKPEETAVYYCAKDRPGWFHKYDYWGQGTQVTVSS | low polyreactivity
QVQLVESGVGLVQAGGSLRLSCAATGFTFYWYTMGWYIQAPGKERELVAAISASGGRTYYADSVKGRFTISRDNAKNTVYLQMNSLKPEDTAVYYCAARFRTWGNREAGYYWGQGTQVTVSS | high polyreactivity
QVQLVESGGGLVQGVGTLRLSCAASGITFVYYAMGWSRHAPVKERELFAAISSGGSSTYYADSVKGRFTMSRDTAKNTVYLQMHSQKPEDTAVYYCAATNYFPRLQWMDYWGQGTQVTVSS | low polyreactivity
QVQLVESGGGLVQAGGSLRLSCAASGFIFVYNAMGWYRPAPGKERELVAAINGSGDSTYYADSVKGRFTISRDNAKNTVYLQMNSLKPEDTAVYYCAARYKVPLSRYILVLYDYWGQGTQVTVSS | low polyreactivity
QVQLVESGGGLVQAGGSLRLSCAASGSIFGDNTRGWYRQAPGKERELVAAISWRGGSTYYADSVKGRFTISRDNSKNTVYLQMNSLKPEDTAVYYCIGGPGGYDYWGQGTQVTVSS | low polyreactivity
QVQLVESGGGLVQAGGSLRLSCAAMGWYRPAPGKERELVATITWSGGSTYYADSVKGRFTISRDNAKNTVYLQMNSLKPEDNAVYYCNARATLLSPANTIRGYDYWGQGTQVTVSS | low polyreactivity
QVQLEESGGRLVQAGGSIRLTCAASGSIFASNTKGWYRQAPGKERELVAGITKIGSSTYYADSVKGRFTISRDNAKNTVYLQMNSLKPEDTAVYYCNAYGPNIYSSRYDYWGQCTQVTVSS | low polyreactivity
QVHLVESGGGLVQAGGSLRLSCAASGSTFGSNAMGWYRQAPGKERELVAAIRGIVGSKYYADSVKGRFTISRDNAKNTVYLLMNSLKPEDTAVYYCAADIDFERDRYVYWGQGTQVTVSS | low polyreactivity
QVQLVESAGGLVQAGGTLRLSCAATGRIVYLNAMGWYRQAPGKERELVAAISGSTGSTYYADSVKGRFTISRDNAKNTVYLQMMSLKPEDTAVYYCNAGGVYDEFNYWGQGTQVTVSS | low polyreactivity
QVQLVESGGGLVQAGGSLRLSCAASGRIFRPYAMGWYRQAPGKERELVAAITQSGGITSYADSVKGRFTISRDNAKYTVYLQMNSLKPEDTAVYYCAADDFTTAGFGMDYWGEGTQVTVSS | low polyreactivity
QVQLVESGGGLVQAGGSLRLSSAASGSTFRGNAMGWYRQAPGKERELVAAITGRGGRTYYADSVKGRFTISRDNAKNTVYLQMNSLKPEDTAVYYCAAYSRYKPYGITAYDYWGLGTQVTVSS | high polyreactivity
QVQLVESGGGLVQAGGSLRLSCAASGSTFIIYSMGWYRQAPGKERELVATISTRGTSTYYADSVKGRFTISRDNAKNTVYLQMNSLKPEDTAVYYCNARRRGYGNRYTFDYWGQGTQVTVSS | high polyreactivity
QVQLVESGGGLVQAGGSLRLSCAASGSTFISYAMGWYRQAPGKERELVAAISSSGGSTYYADSVKGRFTISRDNAKYTVYLQMNSLKPEDTAVYYCAAESVYYRSWRYYYWGQGTQVTVSS | high polyreactivity
QVQLVESGGGLVQARGSLRLSCASSGSIFTDNGMGWYRQPPGKESDLVAAISWRGGTYYADSVKGRFTISRDNAKNTVYLQMNSLKPEDSAVYYSAADVLRISTRLFRGPGFDSWGQGTQVTVSS | low polyreactivity
QVQLVESGGGLVQAGGSLRLSCAASGRTFGWYAMGWYRQAPGKERELVAAINNSGDITYYADSVKGRFTISRDNAKNTVYLQMNSLKPEDTAVYYCAKSLPHSTSRDYWGQGTQVTVSS | low polyreactivity
QVQLVESGGGLVQAGGSLRLSCAASGSTFWSNAMGWYRQAPGKERELVAAISISDGNTYYADSVKGRFTISRDNAKNTVYLQMNSLKPEDTAVYYCATVGSEDGDPGFDYWGQGTQVTVSS | low polyreactivity
QVQLVESGGGLVQAGGSLRLSCAASGLIFKSYVMGWYRQSPGKERELVAGITGSGGTTYYADSVKGRFTISRDNAKNTVYLQMNSLKPEDTAVYYCAAVFETGAGGFYYTLQYDSWGQGTQVTVSS | high polyreactivity
